The results in this text go back to patent US20200123264A1 (Regeneron, published 2020).

Assay [1] deals with T1, human LEPR CRH1-Ig (D2,D3)-MMH (human, UniProt P48357 230-427, limits assumed).
T1 construct: domain: CRH1-Ig (D2,D3); Transiently expressed, captured from supernatant on anti-myc beads
T1 sequence (looked up): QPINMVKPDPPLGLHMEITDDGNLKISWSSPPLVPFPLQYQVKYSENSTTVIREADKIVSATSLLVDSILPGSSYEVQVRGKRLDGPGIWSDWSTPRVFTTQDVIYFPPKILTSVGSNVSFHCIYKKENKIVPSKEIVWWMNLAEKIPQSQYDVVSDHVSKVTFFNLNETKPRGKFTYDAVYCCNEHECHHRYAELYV
As to the kind of experiment: Luminex, myc-captured LEPR protein on beads, Ab 5 µg/mL. How it is done:
(§1) Aliquots of microspheres with immobilized anti-myc monoclonal antibodies, prepared as described above, were added individually to 1 mL of the each of these protein supernatants. The microspheres were gently mixed, incubated for two hours at 25° C., washed twice with 1 mL of DBPS, centrifuged to remove the supernatant and finally resuspended in 1 mL of DPBS buffer. Forty eight μL of anti-myc IgG coupled microspheres from individual reactions with full length human LEPR and with each of the human LEPR domain proteins were withdrawn and mixed together in 3.6 mL of PBS+20 mg/mL BSA+0.05% sodium azide (blocking buffer).
(§2) From this mixed pool, 75 μL of microspheres were plated per well on a 96 well filter plate (Millipore, Cat. No: MSBVN1250) and mixed with 25 μL of individual anti-human LEPR monoclonal antibodies (0.5 or 5 μg/mL), incubated for two hours at 25° C. and then washed twice with 200 μL of DPBS with 0.05% Tween 20 (washing buffer). […] After 30 minutes, the samples were washed twice with 200 μL of washing buffer and resuspended in 150 μL of wash buffer. The Median Fluorescence intensity (MFI) of the microspheres was measured in a Luminex Analyzer.

Assay [2] concerns the target T2, recombinant human LEPR extracellular domain expressed with a C-terminal myc-myc-hexahistidine tag (human, UniProt P48357 22-839).
T2 construct: Monomeric construct; also called hLEPR.MMH; hLEPR-MMH
Described as above. How it is done: as §1, §2

In the next assay the target is T3, human LEPR CRH2-MMH (human, UniProt P48357 428-634, limits assumed).
T3 construct: domain: CRH2; Transiently expressed, captured from supernatant on anti-myc beads
T3 sequence (looked up): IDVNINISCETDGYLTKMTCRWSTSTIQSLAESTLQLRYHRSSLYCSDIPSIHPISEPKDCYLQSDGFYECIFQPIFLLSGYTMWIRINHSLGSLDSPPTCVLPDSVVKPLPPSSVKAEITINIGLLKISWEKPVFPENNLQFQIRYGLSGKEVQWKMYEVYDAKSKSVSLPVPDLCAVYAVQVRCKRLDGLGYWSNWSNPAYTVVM
The description is as above. How it is done:
as §1, §2

The target in assay [3] is T4, recombinant rat LEPR extracellular domain expressed with a C-terminal myc-myc-hexahistidine tag (rat, UniProt Q62959 22-839).
T4 construct: Monomeric construct; also called rLEPR.MMH; rLEPR-MMH
Briefly: SPR, mAb captured, 25 C. How it is done: (§3) Equilibrium dissociation constants (KD values) for antigen binding to purified anti-LEPR monoclonal antibodies of the invention were determined using a real-time surface plasmon resonance biosensor using a Biacore 4000 instrument. All binding studies were performed in running buffer containing 10 mM HEPES, 150 mM NaCl, 3 mM EDTA, and 0.05% v/v Surfactant Tween-20, pH 7.4 (HBS-ET running buffer) at 25° C. and 37° C. The Biacore sensor surface was first derivatized by amine coupling with a monoclonal mouse anti-human Fc antibody (GE, # BR-1008-39) to the capture anti-LEPR monoclonal antibodies. The LEPR reagents tested for binding to the anti-LEPR monoclonal antibodies included recombinant human LEPR extracellular domain expressed with a C-terminal myc-myc-hexahistidine tag (hLEPR.MMH; SEQ ID NO:90), recombinant cynomolgus monkey LEPR extracellular domain expressed with a C-terminal myc-myc-hexahistidine tag (mfLEPR.MMH; SEQ ID NO:93), recombinant mouse LEPR extracellular domain expressed with a C-terminal myc-myc-hexahistidine tag (mLEPR.MMH; SEQ ID NO:94), recombinant rat LEPR extracellular domain expressed with a C-terminal myc-myc-hexahistidine tag (rLEPR.MMH; SEQ ID NO:95), and recombinant human LEPR extracellular domain expressed with a C-terminal mouse IgG2a Fc tag (hLEPR.mFc; SEQ ID NO:91). LEPR constructs that include MMH tags are monomeric LEPR constructs, and LEPR constructs including an mFc tag are dimeric LEPR constructs. […] The dissociation of monoclonal antibody bound LEPR reagent was monitored for 10 minutes in HBS-ET running buffer. Kinetic association (10 and dissociation (10 rate constants were determined by fitting the real-time binding sensorgrams to a 1:1 binding model with mass transport limitation using Scrubber 2.0c curve-fitting software. Binding dissociation equilibrium constants (KD) and dissociative half-lives (t½) were calculated from the kinetic rate constants as: […]

The target in assay [4] is T2, recombinant human LEPR extracellular …. As to the kind of experiment: SPR, mAb captured, 25 C. The method, then:
as §3

Assay [5] concerns the target T5, recombinant cynomolgus monkey LEPR extracellular domain expressed with a C-terminal myc-myc-hexahistidine tag (cynomolgus monkey, UniProt Q9MYL0 22-837 (rhesus entry)).
T5 construct: Monomeric construct; also called mfLEPR.MMH; mfLEPR-MMH
As to the kind of experiment: SPR, mAb captured, 25 C. The method, then: as §3

Assay [6] deals with T6, recombinant mouse LEPR extracellular domain expressed with a C-terminal myc-myc-hexahistidine tag (mouse, UniProt P48356 22-839).
T6 construct: Monomeric construct; also called mLEPR.MMH; mLEPR-MMH
As to the kind of experiment: SPR, mAb captured, 25 C. The method, then:
as §3

T4 sequence (Q62959 other isoform, or with tags, fused parts or gaps): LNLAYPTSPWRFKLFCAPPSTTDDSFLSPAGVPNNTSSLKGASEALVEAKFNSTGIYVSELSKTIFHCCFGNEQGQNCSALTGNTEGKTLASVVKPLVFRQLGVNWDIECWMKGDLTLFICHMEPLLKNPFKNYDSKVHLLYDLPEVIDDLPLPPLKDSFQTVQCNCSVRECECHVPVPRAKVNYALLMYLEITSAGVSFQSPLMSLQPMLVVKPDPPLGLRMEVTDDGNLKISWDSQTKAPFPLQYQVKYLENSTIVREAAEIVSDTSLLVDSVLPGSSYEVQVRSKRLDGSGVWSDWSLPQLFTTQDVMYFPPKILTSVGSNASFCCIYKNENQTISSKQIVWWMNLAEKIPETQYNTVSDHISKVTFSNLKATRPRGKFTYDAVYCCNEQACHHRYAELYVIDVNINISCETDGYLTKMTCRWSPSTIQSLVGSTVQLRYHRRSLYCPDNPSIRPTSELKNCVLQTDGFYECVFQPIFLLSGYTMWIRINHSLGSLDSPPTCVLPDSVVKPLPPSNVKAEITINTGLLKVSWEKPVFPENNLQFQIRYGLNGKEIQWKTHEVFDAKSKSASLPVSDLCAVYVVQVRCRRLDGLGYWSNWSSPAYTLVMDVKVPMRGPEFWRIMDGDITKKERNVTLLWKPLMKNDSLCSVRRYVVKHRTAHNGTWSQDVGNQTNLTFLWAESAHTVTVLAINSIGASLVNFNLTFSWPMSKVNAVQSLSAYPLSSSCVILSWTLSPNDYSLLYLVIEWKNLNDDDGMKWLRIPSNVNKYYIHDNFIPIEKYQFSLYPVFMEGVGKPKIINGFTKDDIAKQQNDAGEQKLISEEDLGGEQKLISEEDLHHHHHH
T6 sequence (P48356 other isoform, or with tags, fused parts or gaps): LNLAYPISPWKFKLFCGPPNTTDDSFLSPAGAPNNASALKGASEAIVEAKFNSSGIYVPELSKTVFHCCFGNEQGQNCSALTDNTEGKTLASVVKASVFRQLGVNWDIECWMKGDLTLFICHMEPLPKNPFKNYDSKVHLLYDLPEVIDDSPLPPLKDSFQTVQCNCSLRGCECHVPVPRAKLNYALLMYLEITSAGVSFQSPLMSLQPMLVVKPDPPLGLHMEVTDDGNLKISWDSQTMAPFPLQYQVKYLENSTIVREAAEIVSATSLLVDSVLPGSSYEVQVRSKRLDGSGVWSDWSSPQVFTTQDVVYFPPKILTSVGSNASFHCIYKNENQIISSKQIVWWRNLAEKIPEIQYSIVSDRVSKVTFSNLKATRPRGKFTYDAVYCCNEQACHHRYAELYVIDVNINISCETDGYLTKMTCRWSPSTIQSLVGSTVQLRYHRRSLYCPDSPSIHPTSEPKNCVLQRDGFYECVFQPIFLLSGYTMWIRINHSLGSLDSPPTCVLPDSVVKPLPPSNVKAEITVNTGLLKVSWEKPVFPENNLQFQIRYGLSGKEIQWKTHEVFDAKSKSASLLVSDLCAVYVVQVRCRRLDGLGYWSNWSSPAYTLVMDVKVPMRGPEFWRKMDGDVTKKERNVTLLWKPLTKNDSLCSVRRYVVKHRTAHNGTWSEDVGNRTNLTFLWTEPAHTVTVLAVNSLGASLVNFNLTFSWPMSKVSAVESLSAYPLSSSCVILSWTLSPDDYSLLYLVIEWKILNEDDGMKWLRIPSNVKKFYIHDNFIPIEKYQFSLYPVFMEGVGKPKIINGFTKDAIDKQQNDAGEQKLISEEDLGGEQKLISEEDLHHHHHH

B1: H4H18462P2 (antibody, human IgG4, V domains shown)
VH: EVQLVESGGDLVQPGRSLRLSCAASGFTFSSFAMSWVRQAPGRGLEWVSSLSDSGDNTYYADSVKGRFTISRDNSKNTLYLQMNNLRAEDTAVYYCAKDLFSGWLFHGFDVWGQGTMVTVSS
VL: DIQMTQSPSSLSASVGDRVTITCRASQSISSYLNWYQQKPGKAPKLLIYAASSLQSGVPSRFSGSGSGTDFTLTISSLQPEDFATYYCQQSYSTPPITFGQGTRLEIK
notes: H4H prefix: human IgG4 Fc
B1: the “Luminex MFI” value in assay [1] was found to be 47 MFI. Also, the “Luminex MFI” value in assay [2] turned out to be 5850 MFI. The “Luminex MFI” value in the assay with human LEPR CRH2-MMH was 24 MFI. In assay [3], the “100 nM rLEPR-MMH Bound (RU)” value is 5 RU, the Kd amounted to 336 nM, the koff amounted to 0.0108 s⁻¹ and the kon was found to be 32100 M⁻¹ s⁻¹. In addition, the t½ in assay [3] was 1.1 min. In assay [4], the “100 nM hLEPR-MMH Bound (RU)” value is 34 RU, the Kd is 113 nM, the koff stood at 0.00765 s⁻¹ and the kon turned out to be 67900 M⁻¹ s⁻¹. For the same molecule, the t½ in assay [4] was 1.5 min. In assay [5], the “100 nM mfLEPR-MMH Bound (RU)” value came out at 42 RU, the Kd is 179 nM, the koff worked out at 0.0133 s⁻¹ and the kon worked out at 74200 M⁻¹ s⁻¹. In addition, the t½ in assay [5] came to 0.9 min. For the same molecule, in assay [6], the “100 nM mLEPR-MMH Bound (RU)” value was 2 RU and the binding result was “no binding (tested: 100 nM)”.

B2: H4H18466P2 (antibody, human IgG4, V domains shown)
VH: EVQLVESGGGLVQPGGSLRLSCTASGFTFSSYGLHWVRQAPGKGLEYVSSINHNGGSKYYADSVKGRFTISRDNSKNTLFLQMGSLKTEDMAVYYCARDLFLEWLFHGFDIWGQGTMVTVSS
VL: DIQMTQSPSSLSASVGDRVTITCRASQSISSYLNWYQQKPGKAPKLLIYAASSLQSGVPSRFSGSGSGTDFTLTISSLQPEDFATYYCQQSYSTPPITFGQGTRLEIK
notes: H4H prefix: human IgG4 Fc
B2: in assay [1], the “Luminex MFI” value was found to be 76 MFI. Also, in assay [2], the “Luminex MFI” value worked out at 5070 MFI. Also, the “Luminex MFI” value with human LEPR CRH2-MMH was found to be 17 MFI. Moreover, in assay [3], the “100 nM rLEPR-MMH Bound (RU)” value turned out to be 5 RU, the Kd worked out at 943 nM, the koff came out at 0.0198 s⁻¹ and the kon worked out at 21000 M⁻¹ s⁻¹. The t½ in assay [3] is 0.6 min. Besides, in assay [4], the “100 nM hLEPR-MMH Bound (RU)” value was 24 RU, the Kd was determined as 194 nM, the koff turned out to be 0.00511 s⁻¹ and the kon was 26400 M⁻¹ s⁻¹. Moreover, the t½ in assay [4] came to 2.3 min. Also, in assay [5], the “100 nM mfLEPR-MMH Bound (RU)” value was determined as 30 RU, the Kd was found to be 148 nM, the koff came to 0.00669 s⁻¹ and the kon is 45000 M⁻¹ s⁻¹. Further, in assay [5], the t½ amounted to 1.7 min. Moreover, in assay [6], the “100 nM mLEPR-MMH Bound (RU)” value is 1 RU and the binding result is “no binding (tested: 100 nM)”.
